Patent US20230330254A1 (Regeneron, published 2023)
Read-outs that look alike come from different tables or passages of the source.

Key:
[1] = molecular target: T1, full-length human GLP1R on HEK293/CRE-Luc/hGLP1R cells (human, UniProt P43220 24-463); test: cell-based or functional assay
[2] = molecular target: T2, N-terminal ectodomain of human GLP1R expressed with a myc-myc hexahistidine tag (human, UniProt P43220 24-145, limits assumed); test: SPR, captured via anti-hFc, 25 C
T2 construct: extracellular domain; also called hGLP1R-MMH; hGLP1R.mmh
T2 sequence (P43220 24-145 limits assumed): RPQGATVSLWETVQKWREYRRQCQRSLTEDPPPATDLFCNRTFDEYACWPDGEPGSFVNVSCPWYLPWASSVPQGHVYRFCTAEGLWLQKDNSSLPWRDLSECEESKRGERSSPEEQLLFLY

[3] = molecular target: T1, full-length human GLP1R on …; test: flow cytometry, hGLP1R cells
[4] = molecular target: T3, full-length cynomolgus GLP1R on HEK293/CRE-Luc/mfGLP1R cells (cynomolgus, UniProt F8V479 24-463); test: flow cytometry, mfGLP1R cells
T3 construct: whole, on cells

[5] = molecular target: T1, full-length human GLP1R on …; test: cell-based or functional assay; remark: listed apart in the source
[6] = molecular target: T2, N-terminal ectodomain of human GLP1R …; test: SPR, captured via anti-hFc, 25 C; remark: listed apart in the source

Row | Binder | 90 nM hGLP1R.mmh Bound (RU) [2] [RU] | Kd [2] [nM] | t1/2 [2] [min] | EC50 [3] [nM] | Flow S/N [3] [fold] | EC50 [4] [nM] | Flow S/N [4] [fold] | further results
1 | COMP Anti-GLP1R mAb1 conjugated to LP4 (antibody, human IgG4 S228P, kappa, V domains shown, azido-PEG3-amine on the Gln of the N-terminal Q-tag LLQGSG, clicked to LP4 (DIBAC-suc-PEG24-P9)) VH: QVTLKESGPGILQPSQTLSLTCSFSGFSLSTSGTGVGWIRQPSGKGLEWLSHIWWDDVKRYNPALKSRLTISRDTSYSQVFLRIASVDTADTATYYCARILDGTGPMDYWGQGTSVTVSS VL: QIVLTQSPAIMSASPGEKVTMTCSASSRVTYMHWYQQRSGTSPKRWIYDTSKLASGVPARFSGSGSGTSYSLTISSMEAEDAATYYCQQWGNNPQYTFGGGTRLEIKR | – | – | – | – | – | – | – | CRE-luc EC50 [1]: 0.0629 nM; CRE-luc Relative Potency (% P8 EC50) [1]: 55.3%; CRE-luc Relative Signal:Noise (% P8) [1]: 87.4%; CRE-luc S/N [1]: 284 fold
2 | COMP Anti-GLP1R mAb1 conjugated to LP2 (antibody, human IgG4 S228P, kappa, V domains shown, azido-PEG3-amine on the Gln of the N-terminal Q-tag LLQGSG, clicked to LP2 (DIBAC-suc-PEG8-P9)) VH: QVTLKESGPGILQPSQTLSLTCSFSGFSLSTSGTGVGWIRQPSGKGLEWLSHIWWDDVKRYNPALKSRLTISRDTSYSQVFLRIASVDTADTATYYCARILDGTGPMDYWGQGTSVTVSS VL: QIVLTQSPAIMSASPGEKVTMTCSASSRVTYMHWYQQRSGTSPKRWIYDTSKLASGVPARFSGSGSGTSYSLTISSMEAEDAATYYCQQWGNNPQYTFGGGTRLEIKR | – | – | – | – | – | – | – | CRE-luc EC50 [1]: 0.0217 nM; CRE-luc Relative Potency (% P8 EC50) [1]: 126%; CRE-luc Relative Signal:Noise (% P8) [1]: 96.4%; CRE-luc S/N [1]: 227 fold
3 | COMP Anti-GLP1R mAb1 conjugated to LP1 (antibody, human IgG4 S228P, kappa, V domains shown, azido-PEG3-amine on the Gln of the N-terminal Q-tag LLQGSG, clicked to LP1 (DIBAC-suc-PEG4-P9)) VH: QVTLKESGPGILQPSQTLSLTCSFSGFSLSTSGTGVGWIRQPSGKGLEWLSHIWWDDVKRYNPALKSRLTISRDTSYSQVFLRIASVDTADTATYYCARILDGTGPMDYWGQGTSVTVSS VL: QIVLTQSPAIMSASPGEKVTMTCSASSRVTYMHWYQQRSGTSPKRWIYDTSKLASGVPARFSGSGSGTSYSLTISSMEAEDAATYYCQQWGNNPQYTFGGGTRLEIKR | – | – | – | – | – | – | – | CRE-luc EC50 [1]: 0.0282 nM; CRE-luc Relative Potency (% P8 EC50) [1]: 96.7%; CRE-luc Relative Signal:Noise (% P8) [1]: 90.3%; CRE-luc S/N [1]: 213 fold
4 | COMP Anti-GLP1R mAb1 conjugated to LP3 (antibody, human IgG4 S228P, kappa, V domains shown, azido-PEG3-amine on the Gln of the N-terminal Q-tag LLQGSG, clicked to LP3 (DIBAC-suc-PEG12-P9)) VH: QVTLKESGPGILQPSQTLSLTCSFSGFSLSTSGTGVGWIRQPSGKGLEWLSHIWWDDVKRYNPALKSRLTISRDTSYSQVFLRIASVDTADTATYYCARILDGTGPMDYWGQGTSVTVSS VL: QIVLTQSPAIMSASPGEKVTMTCSASSRVTYMHWYQQRSGTSPKRWIYDTSKLASGVPARFSGSGSGTSYSLTISSMEAEDAATYYCQQWGNNPQYTFGGGTRLEIKR | – | – | – | – | – | – | – | CRE-luc EC50 [1]: 0.044 nM; CRE-luc Relative Potency (% P8 EC50) [1]: 62.1%; CRE-luc Relative Signal:Noise (% P8) [1]: 115%; CRE-luc S/N [1]: 272 fold
5 | H4H30452P (antibody, V domains shown, parental antibody without Q-tag; also called parent of REGN7990) VH: not shown VL: DIQMTQSPSSVSASVGDRVTITCRASQGINSWLAWYQQKPGKAPKLLIYAASSLQSGVPSRFSGSGSGTDFTLTISSLQPEDFATYYCHQADSFPYTFGQGTKLEIK | 88.9 | 5.4 | 9.8 | 1.68 | 115 | – | – | koff [2]: 0.00118 s⁻¹; kon [2]: 218000 M⁻¹ s⁻¹
6 | REGN8051 (antibody, V domains shown, parental antibody without Q-tag; also called parent of REGN8070) VH: QVQLVESGGGVGQPGRSLRLSCAASGFTFSRNAMHWVRQAPGKGLEWVAVISYDGSNKHYADSVKGRFTISRDNSKNTLYLEMNSLRVEDTAVYYCAKGGIPFDYWGQGTLVTVSS VL: DIVMTQSPLSSPVTLGQPASISCRSSQSLVHFDGNTYLSWLHQRPGQPPRLLIYKISNRFSGVPDRFSGSGAGTDFTLKISRVEPEDVGVYYCMHATQFPYTFGQGTKLEIK | 73.7 | 3.41 | 54.7 | 7.39 | 560 | 4.12 | 494 | koff [2]: 0.000211 s⁻¹; kon [2]: 61900 M⁻¹ s⁻¹
7 | REGN8070 (antibody, human IgG4 S228P, kappa, V domains shown, IgG4; Q-tag on light chain N-terminus; also called mAb 16; REGN8070 unconjugated Ab) VH: QVQLVESGGGVGQPGRSLRLSCAASGFTFSRNAMHWVRQAPGKGLEWVAVISYDGSNKHYADSVKGRFTISRDNSKNTLYLEMNSLRVEDTAVYYCAKGGIPFDYWGQGTLVTVSS VL: DIVMTQSPLSSPVTLGQPASISCRSSQSLVHFDGNTYLSWLHQRPGQPPRLLIYKISNRFSGVPDRFSGSGAGTDFTLKISRVEPEDVGVYYCMHATQFPYTFGQGTKLEIKR | – | – | – | 3.44 | 322 | 2.05 | 246 | –
8 | H4H30484P2 (antibody, V domains shown, parental antibody without Q-tag; also called parent of REGN5619) VH: EVQLVESGGGLVQPGGSLKLSCAASGFTFSGSAMHWVRQASGKGLEWVGRITSKANSYATAYDASVKGRFTISRDDSKNTAYLQMNSLKTEDTAVYYCTRQRFLEFLFLDYWGQGTLVTVSS VL: not shown | 26 | 181 | 0.3 | 1.98 | 208 | 0.963 | 284 | koff [2]: 0.039 s⁻¹; kon [2]: 215000 M⁻¹ s⁻¹
9 | REGN7988-M3190 (antibody, human IgG4 S228P, kappa, V domains shown, linker-payload M3190 (LP11) on Gln 3 of the N-terminal Q-tag LLQGSG) VH: QVQLVESGGGVVQPGRSLRLSCAASGFTFSGYGIHWVRQAPGKGLVWVAVIWYDGSFKYYADSVKGRFTISRDNSKNTLYLQMNSLRAEDTAVYYCARGDSSSSGRYYYYGMDVWGQGTTVTVSS VL: DIQMTQSPSSLSASVGDRVTITCRASQGIRNDLGWYQQKPGTAPKRLIFAASSLQSGVPSRFSGSGSGTEFTLTISSLQPEDFATYYCLQHNNYPPTFGGGTKVEIKR | – | – | – | – | – | – | – | CRE-luc EC50 [5]: 0.107 nM; CRE-luc Relative Potency (% M2361 EC50) [5]: 15.1%; CRE-luc Relative Signal:Noise (% M2361) [5]: 140%; CRE-luc S/N [5]: 90.1 fold
10 | REGN8052 (antibody, V domains shown, parental antibody without Q-tag; also called parent of REGN8072) VH: QVQLVESGGGVVQPARSLRLSCAASGFAFSRSAMHWVRQAPGKGLEWVAVISYDGSNKYYTDSVKGRFTISRDNSKNTLYLQMNTLRAEDTALYYCAKMYTTMDSFDYWGQGTLVTVSS VL: DIQLTQSPSFLSASVGDRVTITCWASQGISSYLAWYQQKPGKAPKLLIYAASTLQSGVPSRFSGSGSGTEFTLTISSLQPEDFALYYCQQLNSYPRTFGQGTKVEIK | 98.7 | 5.49 | 9.6 | 0.705 | – | 2.13 | – | –
11 | REGN8072 (antibody, human IgG4 S228P, kappa, V domains shown, IgG4; Q-tag on light chain N-terminus; also called mAb 4; REGN8072 unconjugated Ab) VH: QVQLVESGGGVVQPARSLRLSCAASGFAFSRSAMHWVRQAPGKGLEWVAVISYDGSNKYYTDSVKGRFTISRDNSKNTLYLQMNTLRAEDTALYYCAKMYTTMDSFDYWGQGTLVTVSS VL: DIQLTQSPSFLSASVGDRVTITCWASQGISSYLAWYQQKPGKAPKLLIYAASTLQSGVPSRFSGSGSGTEFTLTISSLQPEDFALYYCQQLNSYPRTFGQGTKVEIKR | – | – | – | 1.42 | – | – | – | –
12 | REGN9278-M3190 (antibody, human IgG4 S228P, kappa, V domains shown, linker-payload M3190 (LP11) on Gln 3 of the N-terminal Q-tag LLQGSG, antibody-tethered drug conjugate; also called REGN9278 ATDC) VH: QVQLQQWGAGLLKPSETLSLTCAVYGGSFSGYYWSWIRQPPGKGLEWIGEINHAGSTNYNPSLKSRITISVDTSKNQFSLKLSSVTAADTAVYYCARGWYYGSGSYHRNWFDPWGQGTLVTVSS VL: EIVLTQSPGTLSLSPGERATLSCRASQSVYYSYLAWYQQKPGQAPRLLIYGASNRATGIPDRFSGSGSGTDFTLTISRLEPEDFAVYYCQQYGNSPWTFGQGTKVEIKR | – | – | – | – | – | – | – | CRE-luc EC50 [5]: 0.376 nM; CRE-luc Relative Potency (% M2361 EC50) [5]: 4.3%; CRE-luc Relative Signal:Noise (% M2361) [5]: 115%; CRE-luc S/N [5]: 73.8 fold; 90 nM hGLP1R.mmh Bound (RU) [6]: 55.7 RU; Kd [6]: 1.1 nM; koff [6]: 0.000127 s⁻¹; kon [6]: 116000 M⁻¹ s⁻¹; t1/2 [6]: 91 min
13 | REGN9278 (antibody, human IgG4 S228P, kappa, V domains shown, IgG4; Q-tag on light chain N-terminus; also called mAb 19; REGN9278 unconjugated Ab) VH: QVQLQQWGAGLLKPSETLSLTCAVYGGSFSGYYWSWIRQPPGKGLEWIGEINHAGSTNYNPSLKSRITISVDTSKNQFSLKLSSVTAADTAVYYCARGWYYGSGSYHRNWFDPWGQGTLVTVSS VL: EIVLTQSPGTLSLSPGERATLSCRASQSVYYSYLAWYQQKPGQAPRLLIYGASNRATGIPDRFSGSGSGTDFTLTISRLEPEDFAVYYCQQYGNSPWTFGQGTKVEIKR | – | – | – | 4.21 | 436 | 2.49 | 548 | –
14 | H2aM30341N (antibody, V domains shown, parent of H4H30341N (REGN9278 without Q-tag); also called parent of REGN9278) VH: QVQLQQWGAGLLKPSETLSLTCAVYGGSFSGYYWSWIRQPPGKGLEWIGEINHAGSTNYNPSLKSRITISVDTSKNQFSLKLSSVTAADTAVYYCARGWYYGSGSYHRNWFDPWGQGTLVTVSS VL: EIVLTQSPGTLSLSPGERATLSCRASQSVYYSYLAWYQQKPGQAPRLLIYGASNRATGIPDRFSGSGSGTDFTLTISRLEPEDFAVYYCQQYGNSPWTFGQGTKVEIK | 48.4 | 0.346 | 149 | 2.75 | 595 | 2.1 | 646 | koff [2]: 7.74e-05 s⁻¹; kon [2]: 224000 M⁻¹ s⁻¹
15 | H1M30345N (antibody, V domains shown) VH: EVQLVESGGGLVKPGGSLRLSCAASGFIFSRYSMNWVRQAPGKGLEWVSSMSSNSKNTYYADSVKGRFTISRDNAKNSLFLQMNTLRAEDTAVYYCARDGYTLRAFDIWGQGTMVTVSS VL: EIVLTQSPGTLSLSPGERDTLSCRASQSIAGRYVAWYQQKPGQAPRLLIYGASSRATGIPDRFSGSGSGTDFTLTISRLEPEDFAVYYCQQYGSSPWTFGQGTKVEIK | 61.7 | 0.16 | 102 | 1.64 | – | 3.54 | – | –
16 | REGN9267 (antibody, human IgG4 S228P, kappa, IgG4; Q-tag on heavy chain N-terminus; also called mAb 5; REGN9267 unconjugated Ab) heavy: not shown light: EIVLTQSPGTLSLSPGERDTLSCRASQSIAGRYVAWYQQKPGQAPRLLIYGASSRATGIPDRFSGSGSGTDFTLTISRLEPEDFAVYYCQQYGSSPWTFGQGTKVEIKRTVAAPSVFIFPPSDEQLKSGTASVVCLLNNFYPREAKVQWKVDNALQSGNSQESVTEQDSKDSTYSLSSTLTLSKADYEKHKVYACEVTHQGLSSPVTKSFNRGEC | – | – | – | 0.944 | – | 0.668 | – | –
